In the supplement of paper PMC7125110:
± gives the standard error. For part of these data: Fewer inactive variants are shown than the library holds.

B1: glmS ribozyme (parent)
chain: AUAAAAGCGCCAGAACUACAGAAAUGUAGUUGACGAGGAGGAGGUUUAUCGAAUUUUCGGCGGAUGCCUCCAAA

Experiments:
Details in all cases: with glucosamine-6-phosphate
glucosamine-6-phosphate [1] = variants of: B1; assay: kcat; higher = faster cleavage; RNA array
In short: (§1)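 Ribozyme variants carrying barcodes were transcribed in situ on sequenced MiSeq chips by E. coli RNA polymerase and tracked at 37 °C with a hybridised Cy3 probe. They were exposed to 40 μM to 10 mM glucosamine-6-phosphate in HEPES/KCl/Mg(OAc)2 buffer. kobs came from exponential decay fits of normalised per-tile medians, and kcat and KM from weighted Michaelis–Menten fits.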

glucosamine-6-phosphate [2] = variants of: B1; assay: KM; higher = weaker cofactor use; RNA array
In short: as §1

glucosamine-6-phosphate [3] = variants of: B1; assay: self-cleavage kobs at 640 uM GlcN6P; higher = faster cleavage; RNA array
In short: as §1

glucosamine-6-phosphate [4] = variants of: B1; assay: self-cleavage kobs at 2500 uM GlcN6P; higher = faster cleavage; RNA array
In short: as §1

glucosamine-6-phosphate [5] = variants of: B1; assay: self-cleavage kobs at 10000 uM GlcN6P; higher = faster cleavage; RNA array
In short: as §1

glucosamine-6-phosphate [6] = variants of: B1; assay: self-cleavage kobs at 160 uM GlcN6P; higher = faster cleavage; RNA array
In short: as §1

glucosamine-6-phosphate [7] = variants of: B1; assay: self-cleavage kobs at 40 uM GlcN6P; higher = faster cleavage; RNA array
In short: as §1

Variant | kcat (glucosamine-6-phosphate [1]) [s⁻¹] | KM (glucosamine-6-phosphate [2]) [µM] | self-cleavage kobs at 640 uM GlcN6P (glucosamine-6-phosphate [3]) [s⁻¹] | self-cleavage kobs at 2500 uM GlcN6P (glucosamine-6-phosphate [4]) [s⁻¹] | self-cleavage kobs at 10000 uM GlcN6P (glucosamine-6-phosphate [5]) [s⁻¹] | self-cleavage kobs at 160 uM GlcN6P (glucosamine-6-phosphate [6]) [s⁻¹] | self-cleavage kobs at 40 uM GlcN6P (glucosamine-6-phosphate [7]) [s⁻¹]
A6G A14U | 0.000128 ± 4.9e-06 | 1370 ± 180 | 3.84e-05 ± 1e-05 | 8.77e-05 ± 1.3e-05 | 0.000111 ± 1.1e-05 |  | 
C8A A48G | < 1e-05 |  |  | < 1e-05 | < 1e-05 | < 1e-05 | 
A6U U46G | 0.000103 ± 5.5e-06 | 7260 ± 730 |  | 2.66e-05 ± 1.1e-05 | 5.95e-05 ± 1.5e-05 |  | 
A6U U46A | 0.000115 ± 1.6e-05 |  |  |  |  |  | 
A6G C11A | 2.52e-05 ± 7.7e-06 |  |  |  |  |  | 
A6G C11U | 2.61e-05 ± 3.3e-06 |  |  | 2.57e-05 ± 1.2e-05 | 2.38e-05 ± 7.5e-06 | < 1e-05 | < 1e-05
A6U G40A | 5.46e-05 ± 2e-06 | 1650 ± 280 |  | 3.37e-05 ± 1e-05 | 4.67e-05 ± 7e-06 |  | 
A6C A12U | 0.000292 ± 1.8e-05 | 2560 ± 310 | 5.62e-05 ± 7.4e-06 | 0.000157 ± 1.8e-05 | 0.000227 ± 2.1e-05 |  | 
G9A C16A | < 1e-05 | 31.6 ± 7.6 |  |  |  |  | 
C8U C34U G35U C70A | < 1e-05 |  |  |  |  |  | < 1e-05
C10G G62U | < 1e-05 |  |  |  |  |  | < 1e-05
C10U C68U | 1.42e-05 ± 6.5e-06 |  |  |  |  |  | < 1e-05
G7C C50G | 1.12e-05 ± 2.4e-06 |  |  |  |  |  | 
C11A U65G | 3.43e-05 ± 4.3e-07 | 777 ± 84 | < 1e-05 |  | 3.18e-05 ± 1.3e-05 |  | < 1e-05
C11A C16G | 0.000161 ± 3.7e-05 |  |  |  | 5.99e-05 ± 1.1e-05 |  | 
C10U G32A | 2.81e-05 ± 1.1e-06 |  |  | 2.53e-05 ± 9.9e-06 | 2.81e-05 ± 7.9e-06 |  | < 1e-05
C10A G51U C68G | 4.94e-05 ± 1.5e-05 |  | 9.82e-05 ± 3.2e-05 |  | 3.4e-05 ± 1.6e-05 | 5.32e-05 ± 2.5e-05 | 3.72e-05 ± 1.7e-05
G9A A12U | 5.42e-05 ± 3.1e-06 |  |  |  | 2.41e-05 ± 1e-05 | < 1e-05 | 
A6U G38C | < 1e-05 | 3580 ± 1000 | < 1e-05 |  |  | < 1e-05 | < 1e-05
A6U U47A | 0.000155 ± 3.1e-06 | 1890 ± 110 | 3.88e-05 ± 9.8e-06 | 8.84e-05 ± 1.2e-05 | 0.000131 ± 1.3e-05 |  | 
A6U U47G | 5.58e-05 ± 2.6e-06 | 564 ± 180 |  | 4.79e-05 ± 7.2e-06 | 5.16e-05 ± 6.8e-06 |  | 

Variant | kcat (glucosamine-6-phosphate [1]) [s⁻¹] | KM (glucosamine-6-phosphate [2]) [µM] | self-cleavage kobs at 640 uM GlcN6P (glucosamine-6-phosphate [3]) [s⁻¹] | self-cleavage kobs at 2500 uM GlcN6P (glucosamine-6-phosphate [4]) [s⁻¹] | self-cleavage kobs at 10000 uM GlcN6P (glucosamine-6-phosphate [5]) [s⁻¹] | self-cleavage kobs at 160 uM GlcN6P (glucosamine-6-phosphate [6]) [s⁻¹] | self-cleavage kobs at 40 uM GlcN6P (glucosamine-6-phosphate [7]) [s⁻¹]
A6U G37U | < 1e-05 |  |  | < 1e-05 |  | < 1e-05 | 
C11A G60C | < 1e-05 |  |  |  |  | < 1e-05 | 
A6C U55C | 0.000127 ± 4e-05 |  |  | 3.24e-05 ± 1.2e-05 | 7.95e-05 ± 1.6e-05 |  | 
C11G C61U | < 1e-05 |  |  | < 1e-05 | < 1e-05 | < 1e-05 | < 1e-05
G7A C68U | 2.24e-05 ± 5.5e-06 |  |  |  |  |  | 
C10A C71U | < 1e-05 |  |  |  |  |  | 
C8U C71U | < 1e-05 | 25 ± 11 | < 1e-05 |  |  |  | 
C10A C50A | 2e-05 ± 5.5e-06 |  |  |  |  |  | 
A6G U56A | 0.000242 ± 1.2e-05 | 2780 ± 290 | 4.69e-05 ± 1.4e-05 | 0.000114 ± 2.4e-05 | 0.00019 ± 3.6e-05 |  | 
A6G U56G | 0.000188 ± 3.3e-05 | 1150 ± 540 | 7.97e-05 ± 1.2e-05 | 0.000107 ± 1.5e-05 | 0.000191 ± 2.3e-05 |  | 
G9U C71U | < 1e-05 |  | < 1e-05 |  | < 1e-05 | < 1e-05 | < 1e-05
G7A U55A | 8.93e-05 ± 9.4e-06 |  |  |  |  |  | 
G7A A14G | 9.79e-05 ± 3.9e-06 | 3550 ± 470 |  | 3.92e-05 ± 1.5e-05 | 7.23e-05 ± 6.8e-06 |  | 
C8A G37C | < 1e-05 |  | < 1e-05 |  |  | < 1e-05 | 
C11A U69A | 4.95e-05 ± 1.6e-05 |  | 6.89e-05 ± 2.4e-05 | 7.69e-05 ± 2.5e-05 |  |  | 
C10U C11U A12G | 2.44e-05 ± 6.4e-06 |  |  |  |  | < 1e-05 | 
G9C G60A | < 1e-05 |  | < 1e-05 |  |  |  | 
C11A A15C C70A | 4.15e-05 ± 2.7e-06 |  |  |  | 4.27e-05 ± 1.9e-05 |  | 
C11G G59A | 0.000401 ± 1.7e-05 | 8670 ± 560 | 2.81e-05 ± 1e-05 | 8.92e-05 ± 1.8e-05 | 0.000215 ± 3.6e-05 |  | 
C10A A53G | 1.35e-05 ± 4.5e-06 |  |  |  |  | < 1e-05 | < 1e-05
C11G A15U U54A C70A | 3.62e-05 ± 1.5e-05 |  | 6.28e-05 ± 2.7e-05 |  |  |  | 
